“And” between values parts separate entries of the source, which are not always exact repeats. Equal entries are not always repeated. Square brackets hold non-standard residues; d marks the D form. Ends that are not written are not given here. dCit = NC(=O)NCCC[C@@H](N)C(=O)O; dNle = CCCC[C@@H](N)C(=O)O
Target: Tau40 P301L protein (human)
Assay: cell-based or functional assay

| IC50, Tau40 assay (ThT) | Binder |
| --- | --- |
| 2.28 µM | [dA][dR][dL][dR][dI][dH][dW] [arlrihw (PEPTIDE ID NO: 312)] |
| 2.56 µM and 2.57 µM | [dF][dR][dI][dK][dI][dR][dW] [frikirw (PEPTIDE ID NO: 61)] |
| 2.07 µM | [dW][dR][dL][dN][dV][dR][dW] [wrlnvrw (PEPTIDE ID NO: 306)] |
| 2.36 µM | [dW][dR][dL][dR][dI][dT][dW] [wrlritw (PEPTIDE ID NO: 314)] |
| 2.23 µM | [dW][dR][dL][dW][dV][dR][dW][dW] [wrlwvrww (PEPTIDE ID NO: 310)] |
| 2.58 µM | [dW][dE][dL][dR][dI][dH][dW] [welrihw (PEPTIDE ID NO: 322)] |
| 2.49 µM | [dF][dR][dV][dK][dI][dQ][dH][dW] [frvkiqhw (PEPTIDE ID NO: 120)] |
| 2.45 µM | [dL][dK][dI][dR][dI][dE][dH][dY] [lkiriehy (PEPTIDE ID NO: 155)] |
| 2.03 µM and 2.06 µM | [dR][dI][dK][dL][dR][dW] [riklrw (PEPTIDE ID NO: 24)] |
| 2.03 µM | [dL][dK][dI][dR][dI][dA][dY][dH] [lkiriayh (PEPTIDE ID NO: 303)] |
| 2.44 µM | [dL][dK][dI][dM][dI][dH][dY] [lkimihy (PEPTIDE ID NO: 317)] |
| 2.07 µM | [dW][dM][dL][dR][dI][dH][dW] [wmlrihw (PEPTIDE ID NO: 304)] |
| 2.42 µM | [dL][dK][dL][dE][dI][dR][dW][dH] [lkleirwh (PEPTIDE ID NO: 429)] |
| 2.17 µM | [dY][dH][dL][dK][dL][dH][dY][dW] [yhlklhyw (PEPTIDE ID NO: 440)] |
| 2.07 µM | [dW][dT][dL][dR][dI][dH][dW] [wtlrihw (PEPTIDE ID NO: 305)] |
| 0.78 µM | [dL][dK][dI][dR][dI][dW][dY][dH] [lkiriwyh (PEPTIDE ID NO: 206)] |
| 2.11 µM and 2.41 µM | [dF][dE][dL][dR][dL][dH][dW][dH] [felrlhwh (PEPTIDE ID NO: 133)] |
| 2.47 µM | [dW][dQ][dL][dK][dV][dQ][dW] [wqlkvqw (PEPTIDE ID NO: 319)] |
| 2.56 µM | [dW][dK][dL][dK][dL][dR][dW][dW] [wklklrww (PEPTIDE ID NO: 13)] |
| 2.18 µM and 2.21 µM | [dW][dL][dR][dV][dQ][dV][dK][dW] [wlrvqvkw (PEPTIDE ID NO: 111)] |
| 2.34 µM | [dF][dE][dL][dH][dI][dK][dW][dH] [felhikwh (PEPTIDE ID NO: 134)] |
| 2.38 µM and 2.61 µM | [dW][dR][dI][dW][dI][dR][dY][dW] [wriwiryw (PEPTIDE ID NO: 105)] |

| IC50, Tau40 assay (ThT) | Binder |
| --- | --- |
| 2.47 µM | [dL][dK][dI][dCit][dI][dH][dY] [lkizihy (PEPTIDE ID NO: 320)] |
| 2.13 µM | [dL][dR][dV][dQ][dV][dR][dL] [lrvqvrl (PEPTIDE ID NO: 441)] |
| 2.59 µM | [dF][dE][dI][dR][dI][dH][dY][dH] [feirihyh (PEPTIDE ID NO: 442)] |
| 0.75 µM | [dT][dW][dR][dL][dK][dV][dR][dW] [twrlkvrw (PEPTIDE ID NO: 205)] |
| 2.27 µM | [dR][dI][dR][dW][dY][dW][dK] [rirwywk (PEPTIDE ID NO: 311)] |
| 2.45 µM | [dL][dK][dI][dR][dI][dH][dE][dH] [lkiriheh (PEPTIDE ID NO: 318)] |
| 2.04 µM and 2.2 µM | [dR][dI][dR][dL][dR][dW] [rirlrw (PEPTIDE ID NO: 38)] |
| 2.05 µM | [dR][dL][dR][dI][dH][dW][dW] [rlrihww (PEPTIDE ID NO: 164)] |
| 2.21 µM | [dL][dK][dL][dK][dI][dK][dH][dF] [lklkikhf (PEPTIDE ID NO: 154)] |
| 0.79 µM | [dL][dK][dI][dR][dI][dL][dY][dH] [lkirilyh (PEPTIDE ID NO: 208)] |
| 0.78 µM | [dK][dW][dR][dL][dK][dV][dR][dW] [kwrlkvrw (PEPTIDE ID NO: 207)] |
| 2.52 µM | [dW][dW][dL][dK][dL][dR][dW][dW] [wwlklrww (PEPTIDE ID NO: 81)] |
| 2.43 µM | [dL][dE][dI][dR][dI][dH][dY] [leirihy (PEPTIDE ID NO: 316)] |
| 2.61 µM | [dW][dR][dL][dK][dV][dR][dA] [wrlkvra (PEPTIDE ID NO: 323)] |
| 2.26 µM and 0.95 µM and 2.39 µM and 0.82 µM | [dW][dK][dV][dQ][dV][dR][dL][dW] [wkvqvrlw (PEPTIDE ID NO: 2)] |
| 2.65 µM | [dW][dR][dL][dA][dI][dH][dW] [wrlaihw (PEPTIDE ID NO: 325)] |
| 2.63 µM | [dL][dK][dI][dR][dI][dE][dY] [lkiriey (PEPTIDE ID NO: 324)] |
| 2.19 µM | [dL][dA][dI][dR][dI][dH][dY][dH] [lairihyh (PEPTIDE ID NO: 309)] |
| 2.3 µM | [dW][dR][dL][dK][dV][dE][dW][dW] [wrlkveww (PEPTIDE ID NO: 313)] |
| 2.4 µM | [dW][dR][dL][dE][dV][dR][dW] [wrlevrw (PEPTIDE ID NO: 315)] |
| 2.54 µM | [dL][dK][dI][dNle][dI][dH][dY] [lkiuihy (PEPTIDE ID NO: 321)] |
| 0.74 µM and 0.81 µM | [dF][dR][dI][dR][dI][dH][dH][dF] [fririhhf (PEPTIDE ID NO: 113)] |

— patent US20200216495A1 (ADRX, published 2020)
